In IntAct's records for PubMed 31142615:

Biological target: marh2_human MARCHF2 (UniProt Q9P0N8)
Sequence (Q9P0N8 whole entry): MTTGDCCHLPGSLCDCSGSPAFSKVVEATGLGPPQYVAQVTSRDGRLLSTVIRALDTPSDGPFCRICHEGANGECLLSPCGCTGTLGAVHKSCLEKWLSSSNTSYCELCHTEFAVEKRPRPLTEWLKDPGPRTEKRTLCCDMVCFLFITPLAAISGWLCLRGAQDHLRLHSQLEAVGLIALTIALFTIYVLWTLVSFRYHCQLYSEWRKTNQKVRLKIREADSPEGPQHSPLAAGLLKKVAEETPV

Chain of Endoplasmic reticulum-Golgi intermediate compartment protein 3 (Homo sapiens), Q9Y282 K6R;K8R (Q9Y282 whole entry K6R/K8R): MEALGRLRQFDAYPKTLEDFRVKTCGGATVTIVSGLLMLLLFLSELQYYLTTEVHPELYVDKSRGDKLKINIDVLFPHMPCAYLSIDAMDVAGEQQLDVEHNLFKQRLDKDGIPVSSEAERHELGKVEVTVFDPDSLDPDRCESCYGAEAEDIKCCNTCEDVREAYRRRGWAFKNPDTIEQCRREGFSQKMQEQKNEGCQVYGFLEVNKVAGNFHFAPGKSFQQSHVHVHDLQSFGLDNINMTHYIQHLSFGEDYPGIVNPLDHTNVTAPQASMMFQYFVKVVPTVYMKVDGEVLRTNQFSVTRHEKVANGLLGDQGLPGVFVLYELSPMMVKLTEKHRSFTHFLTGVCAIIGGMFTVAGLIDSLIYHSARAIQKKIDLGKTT

Question: For “Endoplasmic reticulum-Golgi intermediate compartment protein 3 (Homo sapiens), Q9Y282 K6R;K8R”, which “effect of a mutation on the interaction” value is on record?
Answer: with no effect
